The record followed here is paper PMC4340967, “Histidine 352 (His^352) and Tryptophan 355 (Trp^355) Are Essential for Flax UGT74S1 Glucosylation Activity toward Secoisolariciresinol” (PLoS ONE, 2015).

Substrate in data set [1]: COc1cc(C[C@@H](CO)[C@H](CO)Cc2ccc(O)c(OC)c2)ccc1O
Put plainly: UPLC-MS assay of SMG formation, Lineweaver-Burk. To be noted: 70-1650 µM SECO, 1.64 mM UDP-glucose fixed, 1 mM NaCl, pH 8.0, 30°C, for SMG production. It is filed as biochemical, Linum usitatissimum. From the text: (§1) UPLC-MS assay of SMG formation, Lineweaver-Burk on UGT74S1 (wild type, W)

Substrate in data set [2]: O=c1ccn([C@@H]2O[C@H](CO[P@@](=O)(O)O[P@@](=O)(O)O[C@H]3O[C@H](CO)[C@@H](O)[C@H](O)[C@H]3O)[C@@H](O)[C@H]2O)c(=O)[nH]1
Put plainly: UPLC-MS assay of SMG formation, Lineweaver-Burk. It is filed as biochemical, Linum usitatissimum. The conditions noted are these: 0.82-8.2 mM UDP-glucose, 280 µM SECO fixed, 1 mM NaCl, pH 8.0, 30°C, for SMG production.
Source text: as §1

B1: UGT74S1 (wild type, W) (Linum usitatissimum) (protein)
chain: MAGDEREKAHCLVVPAAAQGHFTPLLQFSKRLIPKRIRVTLALTRFIHSTMTVTAQSGIHIDTISDGFDHSGLILQDPEHYSQTFRRVGSETLTDLIRKQSESRHPVHCIIYDASMPWFLDVAKRFGIVGAAFLTQSCAVNAIYYHLREGTIKRPVVSDPAAGTLVIDGLPPLEVSDLPSFIWDDLHTEFLAAHLRQFSNDGADWVFCNTVYQLELEAVDWLTKQWLINFRTIGPTIPSFYLDKQIPDDKDYDISIFNPQNQTCMNWLQSKPDGSVVYVSFGSLARLSPQQTEELYFGLKNSNHYFLWVVRESEVAKLPKEEYLSGEKGLVVSWCSQLQVLASGKVGCFVTHCGWNSTLEALSLGVPMVAMPECGDQLTNAKFIKDVWKTGVRAEADDGKGIMWGMIKREVIERCIREVMEGEETRRNADKWGKIIKEAVVEGGSSDKNTEDFATSLINFAETFQFSC
Turning to B1, in data set [1], the Michaelis-Menten constant (Km) – broadly, the concentration of substrate that gives half-maximal velocity – turned out to be 0.717 mM; the kcat (usually the maximal rate divided by the concentration of active sites) worked out at 0.23 s⁻¹; the kcat/Km – broadly, the turnover number divided by the Michaelis constant – is 321 M⁻¹ s⁻¹. Moreover, in data set [2], the Km worked out at 1.103 mM, the kcat was found to be 0.135 s⁻¹ and the catalytic efficiency (kcat/Km) was 122 M⁻¹ s⁻¹.

B2: UGT74S1 (wild type, W) (Linum usitatissimum; C335A) (protein)
chain: MAGDEREKAHCLVVPAAAQGHFTPLLQFSKRLIPKRIRVTLALTRFIHSTMTVTAQSGIHIDTISDGFDHSGLILQDPEHYSQTFRRVGSETLTDLIRKQSESRHPVHCIIYDASMPWFLDVAKRFGIVGAAFLTQSCAVNAIYYHLREGTIKRPVVSDPAAGTLVIDGLPPLEVSDLPSFIWDDLHTEFLAAHLRQFSNDGADWVFCNTVYQLELEAVDWLTKQWLINFRTIGPTIPSFYLDKQIPDDKDYDISIFNPQNQTCMNWLQSKPDGSVVYVSFGSLARLSPQQTEELYFGLKNSNHYFLWVVRESEVAKLPKEEYLSGEKGLVVSWASQLQVLASGKVGCFVTHCGWNSTLEALSLGVPMVAMPECGDQLTNAKFIKDVWKTGVRAEADDGKGIMWGMIKREVIERCIREVMEGEETRRNADKWGKIIKEAVVEGGSSDKNTEDFATSLINFAETFQFSC
With B2, in data set [1], the Michaelis constant (Km) is on record as 1.538 mM, the turnover number (kcat) was 0.0494 s⁻¹ and the catalytic efficiency (kcat/Km) worked out at 32.1 M⁻¹ s⁻¹. In addition, in data set [2], the Km is on record as 3.443 mM, the turnover number (kcat) came out at 0.256 s⁻¹ and the kcat/Km was 74.3 M⁻¹ s⁻¹.

B3: UGT74S1 (wild type, W) (Linum usitatissimum; Q337A) (protein)
chain: MAGDEREKAHCLVVPAAAQGHFTPLLQFSKRLIPKRIRVTLALTRFIHSTMTVTAQSGIHIDTISDGFDHSGLILQDPEHYSQTFRRVGSETLTDLIRKQSESRHPVHCIIYDASMPWFLDVAKRFGIVGAAFLTQSCAVNAIYYHLREGTIKRPVVSDPAAGTLVIDGLPPLEVSDLPSFIWDDLHTEFLAAHLRQFSNDGADWVFCNTVYQLELEAVDWLTKQWLINFRTIGPTIPSFYLDKQIPDDKDYDISIFNPQNQTCMNWLQSKPDGSVVYVSFGSLARLSPQQTEELYFGLKNSNHYFLWVVRESEVAKLPKEEYLSGEKGLVVSWCSALQVLASGKVGCFVTHCGWNSTLEALSLGVPMVAMPECGDQLTNAKFIKDVWKTGVRAEADDGKGIMWGMIKREVIERCIREVMEGEETRRNADKWGKIIKEAVVEGGSSDKNTEDFATSLINFAETFQFSC
B3: in data set [1], the Km stood at 2.716 mM, the kcat turned out to be 0.0077 s⁻¹ and the kcat/Km is 2.85 M⁻¹ s⁻¹. Also, in data set [2], the Km was 27.610 mM, the kcat is 0.547 s⁻¹ and the specificity constant (kcat/Km) was found to be 19.8 M⁻¹ s⁻¹.
